Source: the nanobody polyreactivity screen of Harvey et al. (2022)

assay: yeast display, Sf9 membrane polyspecificity reagent, FACS + sequencing; frameworks hold sequencing errors
Outline: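 Synthetic nanobody libraries on Saccharomyces cerevisiae BJ5465 were galactose-induced for 36–48 hours, stained 1 hour at 4 °C with 10% biotinylated, detergent-solubilized Sf9 membrane reagent and enriched on streptavidin microbeads. FACS then separated cells into low and high (top ~1%) gates by anti-HA (expression) and streptavidin (reagent binding) fluorescence. Genes were colony-PCR amplified, MiSeq 2 × 250 sequenced and CDR-length filtered. A clone's polyreactivity label is that of its gate of origin.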

Sequence	polyreactivity (PSR sort gate)
QVQLVESGGGLVQAGGSLRLSCAASGRIFTYYGMGWYRQAPGKERELVAAISWSGGSTYYADSVKGRFTISRDNAKNTVYLQMNSLKPEDTAVYYCNAASRYGGDYWGQGTQVTVSS	high polyreactivity
QVQLVESGGGLVQAGGSLRLSCAASGRTFYRYAMGWSRQAPGKERELVATISGSGGSTYYADSVKGRFTISRDNAKNTVYLQMNSLKPEDTAVYYCNAVWRFPIGRTAPRYDYWGQGTQVTVSS	high polyreactivity
QVQLVESGGGLVQAGGSLRLSCAPSGITFRVNAMGWYRQAPGKERELVASISRSGGSTYYADSVKGRFTISRDHAKNNVYLQMKSLKPEDTAVYYCADAQKVLFYGRWFDYWGQCTQVTVSS	low polyreactivity
QVQLVESGVGLVQAGGSLRLSCAASGGTFPYYAMGWYRQAPGKERELVAAISRSGARTYYADSVKGRFTISRDNAKNTVYLQMNSLKPEDTAVYYCATDNTYGYDYWGQGTQVTVSS	high polyreactivity
QVQLVESGGGLVQAGGSLRLSCAASGSTFASNVMGWYRQAPGKERELVAAISRSGGNTYYADSVKGRFTISRDNAKNSVYLQMNSLKPEDTAVYYCAKYPFTRISYDYWGQGTQVTVSS	high polyreactivity
QVQLVESGGGLVQAGGSLRLSCAASGIIFTQNGMGVYRPAPGKERELVAAISWSAGGTYYADSVKGRFTISRDNAKNTVYLQMNSLIPEDTAVYYCNARVYNVFREFNSWGQGTQVTVSS	low polyreactivity
QVQLVESGGGLVQAGGSLRLSCAASGRTFSFYAMGWYRQAPGKERELVAGIDWDDGSTSYADSVKGRFTISRDNAKNTVYLQMNSLKPEDTEVYYCAADIGYDVYNDYDYWGQGTQVTVSS	low polyreactivity
QVQLVESGGGLVQAGGSLRLSCAASGRIIAIYAMGWYRPAPGKERELVAAISWNSGRTNYADSVKGRFTISRDNAKNTVYLQMNSLKPEDTAVYYCAADGDRYLVSTSYPEYDYWGQGTQVTVTS	low polyreactivity
QVQLVESGGGLVQAGGSLRLSSAASGRIFDTNAMGGYRQAPGKERELVAAISKSGGSTYYADSVKGRFTISRDNAKNTVYLQMNSLKPEDTAVYFCAAKYTSGRVLFEHGYWGQGSQVTVSS	low polyreactivity
QVQLVESGGGLVQAGGSLRVICAASGIIFPIYAMGWYRQAPGKEWELVAGISTGGGGTYYADSVKGRFTISRDNAKNTVYLQKNSLKPEDTAVYYCNVDAAGSNSHARHDSWGQGTQVTVSS	low polyreactivity
QVQLVESGGGLVQAGGSLRLSCAASGRTFTGYAMGWYRQAPGKERELVASISSRGGSTYYADSVKGRFTISRDNAKNTVYLQMNSLKPEDTAVYYCAADSVRHTYSWWYAVDYWGQGTQVTVSS	high polyreactivity
QDQLVESGGGLVQAGGSLRLICAASGSTFEYNAMGWSRHAPGKERELVASSTNYADSVKGRFTISRDNAKNTVYLQMNSLIPEDTAVYYCAREHGVNRNHDYWGQGTQVTVSS	low polyreactivity
QVQLVESGGGVVQAGGSLRLSCSASGSTFLGYVMGWYRQAPGKEREFVAVISRSGGDTYYADSVKGRFTISRDNAKNTVYLQMNSLKPEDTAVFYCNTRVRASSVDYDEGDYWGQGTQVTVSS	low polyreactivity
QVQLVESGGGLVQAGGSLRLSCAASGFTFNAYAMGWYRQAPGKERELVAAINVSGGITYYADSVKGRFTISRDNAKNTVYLQMNSLKPEDTAVYYCARDSYYSQVYRRGYSVPWRLDYWGQGTQVTVSS	low polyreactivity
QVQLQESAGGLVQAGGSLRLRCSASGYISCDASMGSYRQAPGKERELAASITKGSSTNYADSVKGRFTIRDNAKNTVYLQMNSLKPEDTAVCYCAVTYPYWGDYTYWGQGTQVTVSS	low polyreactivity
QVQLVESGGGLVQAGGSLRLSCAASGRIFPSYAMGWYRQAPGKERELVAAISYSGASTYYADSVKGRFTISRDNAKNTVYLQMNSLKPEDTAVYYCYQLVEEDYWGLGTQVTVSS	low polyreactivity

Sequence	polyreactivity (PSR sort gate)
QVQLVESGGVLVQAGGSLRLSCAASGRTLFHYAMGWDRQAPGKERELVAAIRNSDGSTYYADSVKGRFTISRDNAKNTVYLQMNSLKPEDTAVYYCAAKYKYRTNNYWGQGTQVTVSS	high polyreactivity
QVQLVESGGGLVQAGGSLRLSCAASGSIIHFYAMGWYRQAPGKERELVAAITSGTSTYYADSVKGRFTISRDNAKNTVYLQMNSLKPEDTAVYYCAAEASHYYYNAYPSYGGSDYWGQGTQVNVSS	low polyreactivity
QVQLVESGGGLVQAGGSLRLSCAASGITFYINAMGWSRQAPRKERALLAGISSGGSTNYADSVKGRFTISRDNAKNTVYLQMNSLKPEDTAVYYCWVSRTYHLDYWGQGTQVTVSS	low polyreactivity
QVQLVESGGGLVQAGGSLRLSCAASGNIFSSNAMGWYRQAPGKERELVAAISASGGNTYYADSVKGRFTISRDNAKNTVYLQINSLKPEDTAVYYCNAYRGGYLRRGYYYWGQGSQVTVSS	high polyreactivity
QVQLVESGGGLVQAGGSLRLSCAASGSTFDPNVMGWYRQAPGKERELVAAISSIGGSTYYADSVKGRFTISRDNAKNTVYLQMNSLNPQDTAVYYCAAGYPRFGYDYWGQGTQVTVSS	high polyreactivity
QVQLVESGGGLVQAGGSLRLSCAASGTTFGAYAMGWYRQARGKERELVAVITWNDGSTYYADSVKGRFTISRDNAKNTVYLHMNSLKPEDTAVYYCAAEYAVSWSAFDWNYYYWGQGTQVTVSS	high polyreactivity
QVQLVESGGGLVQAGGSLRLTCAASGRIFKYYAMGWYRQAPGKEREFVADISRRGGSTYYADSVKGRFTISRDNAKNTVYLQMNSLKPEDTAVYYCAAQSGYIMDYWGQGTQVTVSS	high polyreactivity
QVQLVESGGGLVQAGGSLRLSCAASGRTFKYYAMGCYRQARGKERELVAAISGSGGSTYYADSVKGRFTISRDNAKNTVYLQMNSLKPEDTAVYYCATGGGKTRSYNYWGKGTQVTVSS	high polyreactivity
QVQLVESGGGLVQAGGSLRLSCAASGSIFYSNAMGWYRQAPGKERELVAAIRTSAGSTYYADSVKGRFTISRDYAKNTVYLQMTSLKPEDTAVYYCAAVTTYYYYDVTDYAYEYYYWGQGTQVTVSS	low polyreactivity
QVQLVESGGGLVQAGGSLRLSCAASGSILDGNAMGWYRQAPGKERELVAAITRSGGRTYYADSVKGRFTISRDNAKNTVYLQMNSLKPEDTAVYYCNVDVPGVRFEYWGQGTQVTVSS	low polyreactivity
QVQLVESGVGLVQAGGSLRLSCAAYGYTFYRYAMGWYRQAPGKERELVAAINKSGGRTYYADSVKGRFTISRDNAKNTVYLQMNSLKPEDTAVYYCNTPFDYPDNPEYDYWGQGTQVTVSS	high polyreactivity
QVQLVESGGGLVQAGGSLRLSCAASGSTIPYYAMGWYRPAPGKERELVARIRWNGDSTYYADSVKGRFTISRDNAKNTVYLQMNSLKPEDTAVYYCARQGYTLYRTRYRYDYWGQGTQVTASS	high polyreactivity
QVQLVESGGGLVQAGGSLRLSCAASGSISHYAMGWYTQAPGTESELVAAISRRGGSTYYADSVKGRFTISRDNAKNTVYLQLNSLKPEDTAVYYCNAVRAGGYTEFNYWGQGTQVTVSS	high polyreactivity
QVQLVESGGGIVQAGGSLRLSCAASGFIFSYYVMGWYRQAPGKEREFVAAITYSGTYTYYADSVKGRFTISRDNAKNTVYLQMNSLKPEDTAVYYCAAYSPRYNAHDYWGQGTQVTVSS	high polyreactivity
QVQLVESGGALVQAGGSLRISCAASGLIIVRKAMGLYRQAPGKERELVAAIRWSGGSTYYADSVKGRFTISRDNGNNTVFLQMNRLKPEDTSVYYCAATGYGFDMDYWGQGTQVNVSS	low polyreactivity
QVQLVESAGGLVQAGGSLSLSCAASGRIFYSYAMGWYRQAPGKERELVAAISSAGSTYYADSVKGRFTMSRDNEKNTVYLQTNSLKPEDTAVYYCAAYRAGNSYYPRLNYWGQGTQVTVSS	high polyreactivity
